B1: TPR t1 (parent)
chain: GACCAAUCUGCCCUCAGAGCUCGAGAACAUCUUCGGAUGCAGAGGAGGCAGGCUUCGGUGGCGCGAUAGCGCCAACGUCCUCAACCUCCAAUGCAUCCCACCACAUGAUGAUGCCUGAAGAGCCUUGGUUUUUUG

Variants of: B1
Experiment: polymerase ribozyme fitness, log enrichment relative to wild type (log ratio); higher = more active; in vitro selection for triplet polymerase activity
Summary of the method: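 Both subunits of a heterodimeric triplet polymerase ribozyme were given their own mutant library, built by PCR and transcribed. Each library was annealed with a biotinylated primer, the partner subunit and triplets, incubated frozen at −7 °C, and its extended constructs gel-excised, captured on streptavidin beads and amplified by RT-PCR, all in one round done in triplicate. Fitness is the logarithm of genotype enrichment relative to wild-type enrichment, with replicates averaged by inverse-variance weighting. That logarithm is base 2, and Illumina-sequenced genotypes needed ≥10 input reads and ≥1 read per output.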

| Variant | polymerase ribozyme fitness (log ratio) |
| --- | --- |
| G10A C15U G47A U112A C124A G127C | -1.98 |
| G10A G51A C70U A119G | -4.32 |
| G10A C53A C72U C79A U96G | -1.55 |
| G10A G60U | -0.0901 |
| G10A C56U C94G | -0.664 |
| G10A G42A A43U C64U | -1.45 |
| G10A C15G C82A G93A | -4.03 |
| G10A C11U C13U C62A C79A U106C G122A | -3.29 |
| G10A A37U C53A C56G C85U G110U | -2.81 |
| G10A C11U | -0.673 |
| G10A C13A A18G | -6.95 |
| U9G U109C | -3.57 |
| G10A C22U | -4.59 |
| G10A A27G C76U C94A | -5.09 |
| U9G U116A | -0.815 |
| G10A A29U G69U A83U C114G C123G | -2.26 |
| G10A A41C C56U U78G C82U | -1.79 |
| G10A C34U U87G | -3.98 |
| G10A U55A G60C G122A | -0.167 |
| G10A G17C C34A G47U C72G C80U C124A | -7.1 |
| G10A G45C C56G C72U | -2.53 |

| Variant | polymerase ribozyme fitness (log ratio) |
| --- | --- |
| G10A G51U C101A | -4.71 |
| G10A A29C C124U | -0.613 |
| G10A A29G | -2.58 |
| G10A G57U C72A C79A U96A | -2.33 |
| G10A G39U | -0.557 |
| G10A A43G A119U | -1.73 |
| U9G U78C C79G G110A | -2.65 |
| G10A C76U G110C | -5.64 |
| G10A A29U A41C C73U A74U G113U | -3.95 |
| G10A C62U G69A A121U G127U | -1.42 |
| G10A A37U G71C C104U | -0.936 |
| G10A G42U C49A C70G C98A U112G U130G | -6.93 |
| G10A G42A | -1.32 |
| G10A U21A A27G C53A | -0.87 |
| G10A G42U G110A | -4 |
| G10A C97A G120U | -4.42 |
| G10A G61A A111G | 0.12 |
| G10A G71U U87C | -0.267 |
| G10A C11G G51U | -2.64 |
| G10A A37U G117U U133A | -4.32 |
| G10A A29G G113A U130A | -3.73 |

| Variant | polymerase ribozyme fitness (log ratio) |
| --- | --- |
| G10A A16U C88A U92C G120U | -1.32 |
| G10A G35A G77A | -5.04 |
| G10A C15G A16G G63A C80U G113C | -4.34 |
| G10A C11A G42U G48A A91G C115U | -2.2 |
| G10A C22G G61A G71C A111U G117A | -7.23 |
| G10A C13A C94U U131A | -1.56 |
| G10A C11G G71A | -0.829 |
| G10A G17A A37G G42U C53A C64U A100U | -5.75 |
| G10A G60A C82A C94U C123A | 1.22 |
| G10A G69U C79A A103C C115U G122A | -5.83 |
| G10A U30A U54A | -5.83 |
| G10A G36A C56A A105U U112A | -3.87 |
| G10A G63A C89A | -3.25 |
| G10A A66G | -1.17 |
| G10A C82A A95U | -0.318 |
| G10A C34A C40U G71C G77U C88A G113A | -6.08 |
| G10A A27C C56A G57A C72U U78G G93C | -4.76 |
| G10A G45A | -1.2 |
| G10A G45C | -0.489 |
| G10A A83C G128U | -2.33 |
| G10A C49G G63U | -0.848 |

| Variant | polymerase ribozyme fitness (log ratio) |
| --- | --- |
| G10A C53U G63U | -0.334 |
| G10A U59C G61A A83G C114G C115U | -7.23 |
| G10A G61U C86U U92C G93A | -2.24 |
| G10A G61A C94U | -0.166 |
| G10A G35U C56G C88A G120C U133A | -4.15 |
| G10A U59A C62A C89G | -5.2 |
| G10A C56U | 0.385 |
| G10A C70U | -0.224 |
| G10A C40A C72U C76A C99A | -7.55 |
| G10A A16U C85G | -3.05 |
| G10A G17C C56U | -2.35 |
| G10A A74U | -0.813 |
| G10A G61A A91C C123U | 0.979 |
| G10A C64U | -0.954 |
| G10A G117C | -4.43 |
| G10A C40G | -0.282 |
| G10A A66G A103U U106A G110U G120A C124A G127A | -6.98 |
| G10A C11G C12U U96C C104U C123G U131G | 2.08 |
| G10A C70A G122A | -1.23 |
| G10A G61C A83U | -2.03 |
| G10A U21G G60A A103C C114A | -5.69 |
